In patent US20150004155A1 (AIMM THERAPEUTICS B V, published 2015):

What was measured:
[1] = biological target: T1, purified recombinant RSV-Ga protein (Sino Biologics) (Respiratory Syncytial Virus subtype A, …, UniProt P03423 64-298); assay: SPR (IBIS MX96), IgG captured on anti-human IgG, RSV Ga injected
T1 sequence: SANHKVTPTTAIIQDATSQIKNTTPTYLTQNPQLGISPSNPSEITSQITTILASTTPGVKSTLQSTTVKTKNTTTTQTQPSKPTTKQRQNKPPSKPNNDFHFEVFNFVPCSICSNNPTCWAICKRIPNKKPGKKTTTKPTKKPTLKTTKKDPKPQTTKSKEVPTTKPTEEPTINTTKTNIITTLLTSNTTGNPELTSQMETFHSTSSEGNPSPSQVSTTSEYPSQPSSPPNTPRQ

[2] = biological target: T2, purified recombinant RSV-Gb protein (Sino Biologics) (Respiratory Syncytial Virus subtype B, …, UniProt O36633 67-299); assay: SPR (IBIS MX96), IgG captured on anti-human IgG, RSV Gb injected
T2 sequence: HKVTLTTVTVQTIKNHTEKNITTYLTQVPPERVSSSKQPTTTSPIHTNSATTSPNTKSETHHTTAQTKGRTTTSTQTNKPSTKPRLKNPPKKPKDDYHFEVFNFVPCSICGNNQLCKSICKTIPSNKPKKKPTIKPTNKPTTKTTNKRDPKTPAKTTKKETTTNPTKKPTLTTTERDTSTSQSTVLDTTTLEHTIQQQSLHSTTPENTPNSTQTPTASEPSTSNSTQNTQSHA

[3] = biological target: T3, RSV G protein in denatured and boiled supernatant of RSV A2 infected HEp2 cells (western blot) (Respiratory Syncytial Virus subtype A, …, UniProt P03423 66-298); assay: western blot, denatured RSV A2 supernatant
T3 sequence: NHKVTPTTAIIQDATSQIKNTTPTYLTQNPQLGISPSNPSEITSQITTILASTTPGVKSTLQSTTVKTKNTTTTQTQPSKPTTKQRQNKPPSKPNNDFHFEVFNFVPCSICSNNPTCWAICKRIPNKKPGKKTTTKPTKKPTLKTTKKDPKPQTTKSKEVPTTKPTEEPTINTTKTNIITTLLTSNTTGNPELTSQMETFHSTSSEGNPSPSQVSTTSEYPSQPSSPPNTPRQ

[4] = biological target: T4, RSV G protein of RSV A2 (native, on RSV A2 infected HEp2 cells / virus) (Respiratory Syncytial Virus subtype A, …, UniProt P03423 1-298); assay: FACS, RSV infected cells, anti-huIgG-PE
T4 sequence: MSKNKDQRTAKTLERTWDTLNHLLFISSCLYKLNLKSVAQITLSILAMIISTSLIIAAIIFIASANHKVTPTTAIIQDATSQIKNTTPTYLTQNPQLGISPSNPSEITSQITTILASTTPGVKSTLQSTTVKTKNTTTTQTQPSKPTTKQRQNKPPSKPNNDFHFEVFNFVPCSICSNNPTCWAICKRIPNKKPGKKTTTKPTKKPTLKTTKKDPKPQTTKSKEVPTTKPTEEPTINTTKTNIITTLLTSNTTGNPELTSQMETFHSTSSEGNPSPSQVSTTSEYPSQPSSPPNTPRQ

[5] = biological target: T2, purified recombinant RSV-Gb protein …; assay: SPR (IBIS MX96), IgG captured on anti-human IgG

B1: AT32 (antibody, V domains shown)
VH: QVQLVQSGAEMKKPGASVKVSCQVAGYTLTELSIHWVRQTPGNGLEWMGGFEPEDGEYIYPQKSQGRVTMTEDTSTGTAYMELRSLRSDDTAVYYCAAEARYCDNSRCSPNFDHWGQGTLVAVSS
VL: DIVMTQSPDSLAVSLGERATFSCKSSQSVLYDSNNKNYLAWYQQRPGQPPKLLIYWASTRESGVPDRFSGSGSGTDFTLTISSLQPEDVAVYYCQQYYDPLITFGQGTRLEIKR
What does the source list for B1?
Kd [1]: 0.6 nM; koff [1]: 0.00043 s⁻¹; kon [1]: 750000 M⁻¹ s⁻¹

B2: AT44 (antibody, V domains shown)
VH: QVQLQASGPGLVKPSETLSLTCNVSGYSVSSGHYWAWVRQSPGKGLEWIGGIHHSGSTYTNPPLKSRVSISIDTSKNQFSLRLTSVTAADTAVYFCARDLYDLSTGPFWFDPWGQGTLVTVSS
VL: EIVMTQSPATLSVSPGERVTLSCRASQSVSTKVVWYQQKFGQAPRLLIYGASTRATGIPVRFSGSGSGTEFTLTISSLQSEDLAVYFCQQYNKWPMYTFGQGTKLEIKR
Which results are given for B2?
Kd [1]: 0.1 nM; koff [1]: 3e-05 s⁻¹; kon [1]: 350000 M⁻¹ s⁻¹; Kd [2]: 0.1 nM; koff [2]: 4e-05 s⁻¹; kon [2]: 340000 M⁻¹ s⁻¹

B3: AT49 (antibody, V domains shown)
VH: QVLLVQSGAEIKKPGSSVKISCKASGGTFSSLALNWVRQAPGQGLQWMGGIIPLFGTQNYAQKFQGRVTITADESTSTAYMELSGLRPEDTAVYYCALFLWFGDQTSDDGFDVWGQGTVVTVSS
VL: DIVMTQSPLSLTVTPGEPASISCRSSQSLLHGNGYKYLHWYLQKPGQSPQLLIYLGSNRASGVPARFSGSGSDTDFTLKISTVETEDVGVYYCMQALQSPTFGQGTKVEIKR
With B3 as the binder, how does the Kd [1] read?
The Kd was 0.1 nM.

What about the koff [1] of the same binder?
The koff was 3e-05 s⁻¹.

What about the kon [1] of the same binder?
Its kon is 220000 M⁻¹ s⁻¹.

And the Kd [2]?
The Kd was 0.5 nM.

And the koff [2]?
Its koff is 5e-05 s⁻¹.

And the kon [2]?
Its kon is 120000 M⁻¹ s⁻¹.

B4: AT40 (antibody, V domains shown)
VH: QVQLVESGGGVVQPGMSHRLSCAASTLIFDRHALHWVRQAPGAGLEWVAILSYDGTTDYYADSVKGRFTVSRDTSKNTVFLQMNGLRPQDTAVYYCARGRALDDFADYGGYYFDYWGQGILVTVSS
VL: DIQMTQSPSSVSASVGDKVTITCRASQGISTWLAWYQQKPGKAPALLIYSASRLQSGVPSRFSGSGSGTDFTLTISSLQPEDYATYYCQQANTFPFTFGPGTKVDIKR
Which Kd [1] does the source give for B4 here?
The Kd was 0.2 nM.

And the koff [1]?
Its koff is 6e-05 s⁻¹.

What about the kon [1] of the same binder?
The kon was 350000 M⁻¹ s⁻¹.

And the Kd [2]?
The Kd was 0.1 nM.

What about the koff [2] of the same binder?
Its koff is 3e-05 s⁻¹.

And the kon [2]?
The kon was 340000 M⁻¹ s⁻¹.

B5: AT42 (antibody, V domains shown)
VH: QVQLQESGPGLVQPSETLSLTCTVSGDSITSNVYYWGWIRQPPGKGLEWIGSIFHSGITHYTPSLNSRVTISVDTSKNQFSLRLSSATAADTAVYYCARHWAGLYFDSWGQGALVAVSS
VL: EIVLTQSPGTLSLSPGERATLSCRASQTVSSSHLAWYQQKPGQAPRLLIHGSSSRATGIPERFSGSGSGPDFTLTISRLKPEDFAVYYCQYYGDSPGSFGEGTKVEIKR
B5 was tested. Which Kd [1] did it give?
Its Kd is 1.3 nM.

What about the koff [1] of the same binder?
Its koff is 0.00076 s⁻¹.

And the kon [1]?
The kon was 640000 M⁻¹ s⁻¹.

Does B5 bind [3]?
Result: no binding

And the Kd [2]?
The Kd was 0.3 nM.

What about the koff [2] of the same binder?
Its koff is 0.0001 s⁻¹.

What about the kon [2] of the same binder?
Its kon is 400000 M⁻¹ s⁻¹.

B6: AT34 (antibody, V domains shown)
VH: QVQLMESGGGVVQPGKSLRLSCAASGFTFSHYGMHWVRQAPGKGLEWVAVISYDGDKKYYADSVKGRFTISRDNSKNTLHLHMNSLRHEDTAVYFCASQGAKGGHELSFYCALDVWGQGTTVAVSS
VL: DIQMTQSPSTLSASVGDRVTITCRASQGIGSWLAWYQQKPGKAPKLLIYNASGLESGVPSGFSGSGSGTEFTLTISSLQPDDSATYYCQQYNSHTWTFGQGTKVEFKR
Does B6 bind [4]?
Result: binds

B7: AT36 (antibody, V domains shown)
VH: QVQVVQSGAEVKKPGASVKVSCKTSGYNFIDHSVSWVRQAPGQGLEWMGWISPYNHRTVYAEKFQGRVTMTTDTSTRTVSMELRRLTSDDTAVYFCARDRVQQGEGNFFDHWGQGTPVTVTS
VL: DIVMTQSPDSLAVSLGERATINCKSSQSLLHSSNNKIYLAWYQQKPGQPPKLLLYWASTRESGVPDRFTGSGSGTDFTLTINSLQAEDVAVYYCQQYYTTHPTFGQGTRLEIKR
Does B7 bind [4]?
Result: binds

B8: AT46 (antibody, V domains shown)
VH: EVQLVESGGGLVQPGGSLRLSCAASGFTFSRYVMSWVRQAPGRGLEWVSSITGSGATTYYADSVKGRFTISRDNSKNTVYLQMNRLRAEDTAIYYCANCGRAGQIFDDWGQGTLVTVSS
VL: QPVLTQSPSASASLGASVKLTCTLSSGHRNYAIAWHQQRPEKGPRYLMKIYTNGSHYPGDGTPDRFSGSSSGAERYLTISSLQSEDEADYYCQTWGAGIWVFGGGTKLTVLG
Does B8 bind [5]?
Result: no binding
